Results taken from paper PMC9762590 (PLOS Pathogens, 2022).
Substitutions are numbered along the chain they refer to.

T1: NANP5.5-1210 Fab-LS-Th2R nanoparticles (Plasmodium falciparum (3D7/NF54-type …, UniProt Q7K740))
T1 construct: 5.5 NANP repeat motifs of the PfCSP central repeat (NANP5.5); 8-aa linker; Aquifex aeolicus lumazine synthase (LS) monomer; Aquifex aeolicus lumazine synthase (LS) alone, from the co-transfected LS-pHLsec plasmid; 60-mer LS nanocage; source: HEK293F, transient co-transfection, secreted, purified (StrepTrap, SEC on Superose 6); copies: + +
T1 chain: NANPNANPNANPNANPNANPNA

T2: NANP6 peptide (Plasmodium falciparum (synthetic repeat …, N-terminal biotin-aminohexanoic acid tag; unmodified C-terminus)
T2 construct: PfCSP central repeat motifs; source: synthetic peptide (CPC Scientific)
T2 chain: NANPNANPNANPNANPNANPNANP

B1: 1210 Fab (Fab, V domains shown)
VH: QVQLVESGGGVVQPGRSLRLSCAASGFTFSNYGMHWVRQAPGKGLEWVAVIWYDGSKKYYADSVKGRFTISRDNSKNTLYLQMNSLRAEDTAVYYCARVRDSSDYYGDAFDIWGQGTMVTVSS
VL: DIQMTQSPSTLSASVGDRVTITCRASQSISSWLAWYQQKPGKAPKLLIYKASNLESGVPLRFSGSGSGTEFTLTISSLQPDDFATYYCQQYNNYWTFGQGTKVEIK
B2: Fab 2541 (Fab, V domains shown)
VH: QVQLVESGGGVVQPGRSLRLSCAASGFTFSSYGMHWVRQTTGKGLEWVAIIWHDGSKKYYADSVKGRLTISRDNSKNTLYLQMNSLRVEDTALYYCARVGDYSDFKYGAFDIWGQGTMVTVSS
VL: B1 VL with K45N, N53T, L60S, N93S, K102R
B3: monoclonal antibody (mAb) 850 (antibody, V domains shown)
VH: QVQLVESGGGVVQPGRSLRLSCAASGFTFSNFGMHWIRQSPGKGLEWVAIIWYDGSNTYYADSVKGRFTISRDNSKNTLYLQMNSLRAEDTAVYYCAKVWFGESEDNYSVDVWGQGTTVTVSS
VL: B1 VL with A13T, S31N, N53T, L60S, N92S, N93S, V103L
notes: VH of mAb 850 (IGHV3-33); human IgG1 heavy chain constant region (antibodies expressed as fully human IgG1); VK of mAb 850 (IGKV1-5); human Ig kappa constant region (antibodies expressed as fully human IgG1); IgG1, kappa; source: recombinantly expressed as fully human IgG1; re-expressed in CHO-3E7 cells, purified (MabSelect SuRe LX)

Tests used:
[1] = target: T1, NANP5.5-1210 Fab-LS-Th2R nanoparticles; assay: BLI; Fabs immobilised on anti-human Fab-CH1 biosensors (10 μg/mL), dipped into nanoparticles; kinetics buffer PBS pH 7.4, 0.01% BSA, 0.002% Tween-20; Octet RED96; conditions: both partners purified
[2] = target: T2, NANP6 peptide; assay: SPR; Carterra LSA, CMD200M chip, 25°C; mAbs directly amine-coupled, PfCSP peptides as analytes (two-fold series, top 8 μg/ml) in 1X HBSTE; 1:1 Langmuir fit; KD includes avidity effect for antigens with multiple repeats; conditions: both partners purified

Binder	binding result [1]	Kd [2] [nM]
B1	binds	
B2	binds	
B3		0.025
